Where two headings read alike, the source gives them in different places.
Experiments:
[1] = biological target: T1, recombinant SARS-CoV-2 spike S1 RBD (R319-F541), C-terminal 6-His (SARS-CoV-2, UniProt P0DTC2 319-541); experiment: sandwich dipstick, detector Ab4-AuNP
[2] = biological target: T2, UK variant RBD (R319-F541 with N501Y), C-terminal 6-His (SARS-CoV-2, UniProt P0DTC2 319-541); experiment: sandwich dipstick, detector Ab4-AuNP
[3] = biological target: T3, SA variant RBD (R319-F541 with K417N, E484K, N501Y), C-terminal 6-His (SARS-CoV-2, UniProt P0DTC2 319-541); experiment: sandwich dipstick, detector Ab4-AuNP
[4] = biological target: T4, BR P.1 variant RBD (R319-F541 with K417T, E484K, N501Y), C-terminal 6-His (SARS-CoV-2, UniProt P0DTC2 319-541); experiment: sandwich dipstick, detector Ab4-AuNP
[5] = biological target: T1, recombinant SARS-CoV-2 spike S1 RBD …; experiment: sandwich dipstick, detector Ab5-AuNP
[6] = biological target: T2, UK variant RBD (R319-F541 with N501Y), …; experiment: sandwich dipstick, detector Ab5-AuNP
[7] = biological target: T3, SA variant RBD (R319-F541 with K417N, …); experiment: sandwich dipstick, detector Ab5-AuNP
[8] = biological target: T4, BR P.1 variant RBD (R319-F541 with …); experiment: sandwich dipstick, detector Ab5-AuNP
[9] = biological target: T1, recombinant SARS-CoV-2 spike S1 RBD …; experiment: lateral flow NC50, RBD-AuNP vs immobilised ACE2
[10] = biological target: T2, UK variant RBD (R319-F541 with N501Y), …; experiment: lateral flow NC50, RBD-AuNP vs immobilised ACE2
[11] = biological target: T3, SA variant RBD (R319-F541 with K417N, …); experiment: lateral flow NC50, RBD-AuNP vs immobilised ACE2
[12] = biological target: T4, BR P.1 variant RBD (R319-F541 with …); experiment: lateral flow NC50, RBD-AuNP vs immobilised ACE2
[13] = biological target: T1, recombinant SARS-CoV-2 spike S1 RBD …; experiment: lateral flow NC50, RBD-AuNP vs immobilised ACE2; remark: listed apart in the source
[14] = biological target: T2, UK variant RBD (R319-F541 with N501Y), …; experiment: lateral flow NC50, RBD-AuNP vs immobilised ACE2; remark: listed apart in the source
[15] = biological target: T3, SA variant RBD (R319-F541 with K417N, …); experiment: lateral flow NC50, RBD-AuNP vs immobilised ACE2; remark: listed apart in the source
[16] = biological target: T4, BR P.1 variant RBD (R319-F541 with …); experiment: lateral flow NC50, RBD-AuNP vs immobilised ACE2; remark: listed apart in the source
[17] = biological target: BR P.2 variant RBD (R319-F541 with E484K) (SARS-CoV-2, UniProt P0DTC2 319-541); experiment: lateral flow NC50, RBD-AuNP vs immobilised ACE2
[18] = biological target: K417E RBD (R319-F541 with K417E) (SARS-CoV-2, UniProt P0DTC2 319-541); experiment: lateral flow NC50, RBD-AuNP vs immobilised ACE2
[19] = biological target: T478K RBD (R319-F541 with T478K) (SARS-CoV-2, UniProt P0DTC2 319-541); experiment: lateral flow NC50, RBD-AuNP vs immobilised ACE2
[20] = biological target: T1, recombinant SARS-CoV-2 spike S1 RBD …; experiment: flow cytometry, blocking of binding to hACE-2 cells
[21] = biological target: T1, recombinant SARS-CoV-2 spike S1 RBD …; experiment: as above; remark: listed apart in the source
[22] = biological target: T4, BR P.1 variant RBD (R319-F541 with …); experiment: as above
[23] = biological target: T5, IN v2 variant RBD (R319-F541 with L452R, T478K) (SARS-CoV-2, UniProt P0DTC2 319-541); experiment: as above
[24] = biological target: rSARS2 RBD aa319-541, N439K, C-His (SARS-CoV-2, UniProt P0DTC2 319-541); experiment: as above
[25] = biological target: rSARS2-B.1.1.7 S aa16-1211 2x aa mut., C-His (SARS-CoV-2, UniProt P0DTC2 16-1211); experiment: as above
[26] = biological target: rSARS2-B.1.1.7 S aa16-1211 4x aa mut., C-His (SARS-CoV-2, UniProt P0DTC2 16-1211); experiment: as above
[27] = biological target: rSARS2-B.1.617.2 S aa16-1211 10+4x aa mut., C-His (SARS-CoV-2, UniProt P0DTC2 16-1211); experiment: as above
[28] = biological target: T6, L452R RBD (R319-F541 with L452R) (SARS-CoV-2, UniProt P0DTC2 319-541); experiment: lateral flow assay: blocking of RBD-AuNP capture by ACE2
[29] = biological target: T7, IN v1 variant RBD (R319-F541 with L452R, E484Q) (SARS-CoV-2, UniProt P0DTC2 319-541); experiment: as above
[30] = biological target: T5, IN v2 variant RBD (R319-F541 with …); experiment: as above
[31] = biological target: T6, L452R RBD (R319-F541 with L452R); experiment: lateral flow NC50, RBD-AuNP vs immobilised ACE2
[32] = biological target: T7, IN v1 variant RBD (R319-F541 with …); experiment: lateral flow NC50, RBD-AuNP vs immobilised ACE2
[33] = biological target: T5, IN v2 variant RBD (R319-F541 with …); experiment: lateral flow NC50, RBD-AuNP vs immobilised ACE2

B1: 1035753 (antibody, V domains shown)
VH: EVQLQQSGAELVRPGALVKLSCKASGFNIKDYYMHWVKQRPEQGLEWIGWIDPENGNTIYDPKFLGKASITADTSSNTAYLQLSSLTSEDTAVYYCARWYYYAMDSWGQGTSVTVSS
VL: DIQMTQTTSSLSASLGDRVTISCSASQGISNYLNWYQQKPDGTVKLLIYYTSSLHSGVPSRFSGSGSGTDYSLTISNLEPEDIATYYCQQYSKLPFTFGGGTNLEMK
detection sensitivity [1]: 0.01 µg/mL | detection sensitivity [2]: 0.01 µg/mL | detection sensitivity [3]: 0.01 µg/mL | detection sensitivity [4]: 0.01 µg/mL | detection sensitivity [5]: 0.001 µg/mL | detection sensitivity [6]: 0.001 µg/mL | detection sensitivity [7]: 0.001 µg/mL | detection sensitivity [8]: 0.001 µg/mL | IC50 [9]: 1.66 µg/mL | IC50 [10]: 1.51 µg/mL | IC50 [11]: 3.19 µg/mL | IC50 [12]: 2.21 µg/mL | IC50 [13]: 1.66 µg/mL | IC50 [14]: 1.51 µg/mL | IC50 [15]: 3.19 µg/mL | IC50 [16]: 2.21 µg/mL | IC50 [17]: 3.22 µg/mL | IC50 [18]: 0.89 µg/mL | IC50 [19]: 2.29 µg/mL | percent blocking [20]: 94.7% | percent blocking [21]: 94.7% | percent blocking [22]: 90.4% | percent blocking [23]: 0% | percent blocking [24]: 96.2% | percent blocking [25]: 93.6% | percent blocking [26]: 81.2% | percent blocking [27]: 0% | binding result [28]: no binding (tested: 10 µg/mL) | binding result [29]: no binding (tested: 10 µg/mL) | binding result [30]: no binding (tested: 10 µg/mL)

B2: 1035419 (antibody, V domains shown)
VH: QVQLKQSGAELVRPGASVKLSCKTSGYIFTSYWIHWIKQRSGQGLEWIARIYPGTGSTYNNEKFKGKATLTADKSSSTAYMQLSSLKSEDSAVYFCARGEDNLYFYAMDYWGQGTSVTVSS
VL: NIVLTQSPASLAVSLGQRATISCRASESVDSYGASFMHWCQQKPGQPPKLLIYLASNLESGVPARFSGSGSRTDFTLTIDPVEADDAATYYCQQNYEDPWTFGGGTKLEIK
detection sensitivity [1]: 0.01 µg/mL | detection sensitivity [2]: 0.01 µg/mL | detection sensitivity [3]: 0.01 µg/mL | detection sensitivity [4]: 0.01 µg/mL | IC50 [9]: 3.27 µg/mL | IC50 [10]: 27.6 µg/mL | IC50 [11]: 24 µg/mL | IC50 [12]: 44.8 µg/mL | IC50 [13]: 3.27 µg/mL | IC50 [14]: 27.6 µg/mL | IC50 [15]: 24 µg/mL | IC50 [16]: 44.8 µg/mL | IC50 [17]: 6.48 µg/mL | IC50 [18]: 1.51 µg/mL | IC50 [31]: 20.6 µg/mL | IC50 [32]: 16.5 µg/mL | IC50 [33]: 33.2 µg/mL | IC50 [19]: 9.01 µg/mL | percent blocking [20]: 90.2% | percent blocking [21]: 90.2% | percent blocking [22]: 8.7% | percent blocking [23]: 72.5% | percent blocking [24]: 69.3% | percent blocking [25]: 21.8% | percent blocking [26]: 33.3% | percent blocking [27]: 78.5%
